# Laboratory results: article PMC4136673
# Ends that are not written are not given here. * marks the point of attachment. Pyruvoyl = CC(=O)C(=O)*
# B1: Pyr-AAIVK (peptide)
# peptide: Pyruvoyl-AAIVK
# B2: Pyr-AAIV (peptide)
# peptide: Pyruvoyl-AAIV
# Biological target: T1, His6-ElxO (Staphylococcus epidermidis 15X154) (UniProt I6ZQW6)
# T1 sequence: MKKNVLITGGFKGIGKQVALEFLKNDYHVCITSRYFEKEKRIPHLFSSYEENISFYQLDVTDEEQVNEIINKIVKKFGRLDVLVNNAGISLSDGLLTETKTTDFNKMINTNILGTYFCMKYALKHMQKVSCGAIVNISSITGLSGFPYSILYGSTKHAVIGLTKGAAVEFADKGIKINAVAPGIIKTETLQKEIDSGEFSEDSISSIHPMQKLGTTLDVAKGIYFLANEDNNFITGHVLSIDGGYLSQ
row,Molecule,kcat/Km of reduction by His6-ElxO with NADPH (absorbance at 340 nm) [M⁻¹ s⁻¹]
1,Pyr-A (peptide),< 0.03
2,Pyr-AA (peptide),< 0.03
3,Pyr-AAI (peptide),0.06
4,Pyr-AAIVKBBIKAAKK (peptide),14.2
5,B1,2.43
6,B2,1.13
